These results are taken from EP4725501A1 (Staidson (Beijing) Biopharmaceuticals Co., Ltd., dated 2026).

Changes are numbered by the printed parent chain.

T1: human MASP3-His (human, UniProt P48740-2 20-728)
T1 sequence (looked up): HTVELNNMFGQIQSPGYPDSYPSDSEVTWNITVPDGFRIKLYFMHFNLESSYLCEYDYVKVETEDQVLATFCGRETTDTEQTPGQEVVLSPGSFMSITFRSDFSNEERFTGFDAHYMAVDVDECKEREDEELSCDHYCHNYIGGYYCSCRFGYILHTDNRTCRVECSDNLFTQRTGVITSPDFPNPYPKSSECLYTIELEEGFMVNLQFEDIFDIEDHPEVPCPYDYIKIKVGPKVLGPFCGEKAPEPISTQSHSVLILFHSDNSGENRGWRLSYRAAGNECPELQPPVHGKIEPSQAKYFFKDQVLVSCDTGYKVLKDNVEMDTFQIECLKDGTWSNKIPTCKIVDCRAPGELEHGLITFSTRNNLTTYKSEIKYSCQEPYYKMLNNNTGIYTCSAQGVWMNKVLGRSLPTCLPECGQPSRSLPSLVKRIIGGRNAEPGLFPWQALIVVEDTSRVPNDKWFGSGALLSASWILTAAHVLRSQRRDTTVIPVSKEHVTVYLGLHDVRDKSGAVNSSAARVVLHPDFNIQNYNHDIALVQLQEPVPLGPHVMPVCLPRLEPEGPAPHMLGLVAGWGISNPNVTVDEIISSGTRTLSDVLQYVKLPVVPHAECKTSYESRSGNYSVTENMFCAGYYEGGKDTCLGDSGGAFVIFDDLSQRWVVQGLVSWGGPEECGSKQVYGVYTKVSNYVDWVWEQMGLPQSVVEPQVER

T2: mouse MASP3-His (mouse, UniProt P98064-2 25-733)
T2 construct: not shown: His tag added to the terminal
T2 sequence (looked up): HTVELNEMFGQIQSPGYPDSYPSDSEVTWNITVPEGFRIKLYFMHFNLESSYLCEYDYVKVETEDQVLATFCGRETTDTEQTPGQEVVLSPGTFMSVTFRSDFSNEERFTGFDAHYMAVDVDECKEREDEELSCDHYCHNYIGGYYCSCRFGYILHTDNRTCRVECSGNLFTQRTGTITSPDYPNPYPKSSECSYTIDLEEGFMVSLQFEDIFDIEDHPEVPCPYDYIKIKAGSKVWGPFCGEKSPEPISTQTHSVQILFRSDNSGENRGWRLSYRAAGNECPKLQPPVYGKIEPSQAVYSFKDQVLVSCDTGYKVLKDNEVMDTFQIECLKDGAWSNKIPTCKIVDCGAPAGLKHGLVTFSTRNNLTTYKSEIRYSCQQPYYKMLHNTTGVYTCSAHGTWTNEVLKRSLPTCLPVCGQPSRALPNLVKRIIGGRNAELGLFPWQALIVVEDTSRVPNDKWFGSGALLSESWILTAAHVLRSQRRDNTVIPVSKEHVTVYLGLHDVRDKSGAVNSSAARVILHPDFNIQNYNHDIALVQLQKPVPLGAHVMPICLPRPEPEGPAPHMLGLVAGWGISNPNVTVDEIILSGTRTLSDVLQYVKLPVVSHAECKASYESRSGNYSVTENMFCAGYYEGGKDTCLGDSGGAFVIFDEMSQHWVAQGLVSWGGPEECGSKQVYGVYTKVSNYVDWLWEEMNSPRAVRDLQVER

T3: MASP3 in Factor D depleted human plasma (human, UniProt P48740-2 20-728)
T3 sequence (looked up): T1 sequence (looked up)

B1: M3-K2-8 (antibody, V domains shown)
VH: QVQLVQSGAEVKKPGASVKVSCKASGYTFTGKWIEWVRQAPGQGLEWMGEILPGSGSTDYNERFKDRATFTADTSTSTAYMELSSLRSEDTAVYYCVRSEDLWGQGTLVTVSS
VL: DIVLTQSPDSLAVSLGERATINCKSSQNLFNSRTRKNYLAWFQQKPGQSPKLLIYWASTRESGVPDRFSGSGSGTDFTLTISSLQAEDVAVYYCKQSYIPFTFGGGTKVEIK
notes: Humanized M3-K2
B2: M3-K1-5 (antibody, V domains shown)
VH: B1 VH with A68V, A79V
VL: B1 VL with L4M, N28S, F30L, R33V, N37T, F42Y, S49P, I99T, P100L, F101P
B3: M3-K1-2 (antibody, V domains shown)
VH: B1 VH with M48I
VL: B1 VL with L4M, N28S, F30L, R33V, N37T, F42Y, I99T, P100L, F101P
B4: M3-K2-10 (antibody, V domains shown)
VH: B1 VH with A68V, A79V
VL: B1 VL
B5: M3-K1-3 (antibody, V domains shown)
VH: B1 VH
VL: B1 VL with L4M, N28S, F30L, R33V, N37T, F42Y, S49P, I99T, P100L, F101P
B6: M3-K1-4 (antibody, V domains shown)
VH: B1 VH
VL: B1 VL with L4M, N28S, F30L, R33V, N37T, F42Y, I99T, P100L, F101P
B7: M3-K2-9 (antibody, V domains shown)
VH: B1 VH
VL: B1 VL with L4M
B8: M3-K2-7 (antibody, V domains shown)
VH: B1 VH with M48I
VL: B1 VL with L4M
B9: M3-K1-1 (antibody, V domains shown)
VH: B1 VH with M48I
VL: B1 VL with L4M, N28S, F30L, R33V, N37T, F42Y, S49P, I99T, P100L, F101P
B10: M3-K1-6 (antibody, V domains shown)
VH: B1 VH with A68V, A79V
VL: B1 VL with L4M, N28S, F30L, R33V, N37T, F42Y, I99T, P100L, F101P
B11: M3-K2-11 (antibody, V domains shown)
VH: B1 VH with A68V, A79V
VL: B1 VL with L4M
notes: Humanized M3-K2
B12: M3-K2-6 (antibody, V domains shown)
VH: B1 VH with M48I
VL: B1 VL
notes: Humanized M3-K2
B13: humM2mc51-1 (antibody, V domains shown)
VH: QVQLQESGPGLVKPSETLSLTCTVSGYSITSDYAWNWIRQPPGKKLEWMGYISYSGRTSYNPSLKSRITISRDTSKNQFSLKLSSVTAADTAVYYCSRHYGDYWGQGTLVTVSS
VL: EIVMTQSPATLSVSPGERATLSCKASQNVGTNVAWYQQKPGQSPRALIYSASYRYSGIPARFSGSGSGTEFTLTISSLQSEDFAVYFCHQYNSNPLTFGGGTKVEIK
notes: Humanized anti-MASP2 antibody; also called anti-MASP2 antibody humM2mc51-1; parent antibody humM2mc51-1
B14: humM2mc51-1-S93E (antibody, V domains shown)
VH: B13 VH
VL: B13 VL with S93E
notes: VL CDR3 mutant of humM2mc51-1
B15: humM2mc51-1-N92S (antibody, V domains shown)
VH: B13 VH
VL: B13 VL with N92S
notes: VL CDR3 mutant of humM2mc51-1
B16: humM2mc51-1-N92Q (antibody, V domains shown)
VH: B13 VH
VL: B13 VL with N92Q
notes: VL CDR3 mutant of humM2mc51-1
B17: humM2mc51-1-ES93DA (antibody, V domains shown)
VH: B13 VH
VL: B13 VL with E1D, S93A
notes: Mutant of humM2mc51-1
B18: M3-K2-5 (antibody, V domains shown)
VH: B1 VH with A68V, A79V
VL: EIVLTQSPATLSVSPGERATLSCKSSQNLFNSRTRKNYLAWFQQKPGQSPRLLIYWASTRESGIPARFSGSGSGTEFTLTISSLQSEDFAVYYCKQSYIPFTFGGGTKVEIK

As usually defined, the EC50 is the concentration giving half of the maximal effect. A word on the Kd: it is the constant that tells how readily two partners part at equilibrium. A word on the koff: it is the first-order rate constant of dissociation. Usually kon stands for the second-order rate constant of association.

T4 sequence (O00187 16-686 R444Q limits assumed): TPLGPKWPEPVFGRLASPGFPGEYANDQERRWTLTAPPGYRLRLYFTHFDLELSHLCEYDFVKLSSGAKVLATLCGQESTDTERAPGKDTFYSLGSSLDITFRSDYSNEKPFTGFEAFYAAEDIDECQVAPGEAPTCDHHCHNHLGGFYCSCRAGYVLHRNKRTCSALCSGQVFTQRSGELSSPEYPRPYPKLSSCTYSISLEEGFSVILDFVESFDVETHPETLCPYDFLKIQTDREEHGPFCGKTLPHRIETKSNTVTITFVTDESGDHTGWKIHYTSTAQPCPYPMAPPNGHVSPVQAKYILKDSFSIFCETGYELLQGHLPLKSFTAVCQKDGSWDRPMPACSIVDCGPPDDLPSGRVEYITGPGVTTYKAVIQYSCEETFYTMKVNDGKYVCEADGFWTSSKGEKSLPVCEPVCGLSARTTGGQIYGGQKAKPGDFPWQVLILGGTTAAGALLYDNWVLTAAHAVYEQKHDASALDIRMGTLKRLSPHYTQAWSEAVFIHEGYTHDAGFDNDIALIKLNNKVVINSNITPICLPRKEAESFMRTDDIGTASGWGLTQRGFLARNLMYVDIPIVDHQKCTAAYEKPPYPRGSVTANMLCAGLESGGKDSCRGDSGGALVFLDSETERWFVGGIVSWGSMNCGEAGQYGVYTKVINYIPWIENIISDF

One experiment concerns the target T1, human MASP3-His. Put plainly: cell-based or functional assay.
Consider B1, for which the “IC50 (nM), inhibition of MASP3 enzyme activity (fluorescent tripeptide cleavage)” value was 21.9 nM.

In the case of B2, the “IC50 (nM), inhibition of MASP3 enzyme activity (fluorescent tripeptide cleavage)” value was 27.9 nM.

With B3, the “IC50 (nM), inhibition of MASP3 enzyme activity (fluorescent tripeptide cleavage)” value worked out at 31.2 nM.

Regarding B4, the “IC50 (nM), inhibition of MASP3 enzyme activity (fluorescent tripeptide cleavage)” value turned out to be 37 nM.

B5: the “IC50 (nM), inhibition of MASP3 enzyme activity (fluorescent tripeptide cleavage)” value amounted to 24.2 nM.

As to B6, the “IC50 (nM), inhibition of MASP3 enzyme activity (fluorescent tripeptide cleavage)” value was 29.9 nM.

For B7, the “IC50 (nM), inhibition of MASP3 enzyme activity (fluorescent tripeptide cleavage)” value was determined as 33.7 nM.

For the molecule B8, the “IC50 (nM), inhibition of MASP3 enzyme activity (fluorescent tripeptide cleavage)” value is 25.2 nM.

As to B9, the “IC50 (nM), inhibition of MASP3 enzyme activity (fluorescent tripeptide cleavage)” value worked out at 31.5 nM.

With B10, the “IC50 (nM), inhibition of MASP3 enzyme activity (fluorescent tripeptide cleavage)” value is 28.2 nM.

For B11, the “IC50 (nM), inhibition of MASP3 enzyme activity (fluorescent tripeptide cleavage)” value came out at 26.4 nM.

B12: the “IC50 (nM), inhibition of MASP3 enzyme activity (fluorescent tripeptide cleavage)” value was determined as 29.5 nM.

A further experiment concerns the target T4, human MASP2 (R444Q) - His (human, UniProt O00187 16-686).
T4 construct: not shown: His tag at the C-terminus
Put plainly: ELISA; human MASP2 (R444Q)-His coated 0.1 ug/well, antibody titrated, goat anti-human IgG HRP. In general terms: ELISA stands for enzyme-linked immunosorbent assay.
B13 had an EC50 of 0.086 nM.

On to B14, for which it took 0.085 nM to reach a half-maximal effect (EC50).

As for B15, the EC50 is 0.079 nM.

B16: a half-maximal response (EC50) required 0.072 nM.

B17: the EC50 was 0.082 nM.

The next experiment concerns the target T2, mouse MASP3-His. As to the kind of experiment: SPR (Biacore 8K); antibody immobilized on CM5 chip, antigen as analyte. On the technique in general: Surface plasmon resonance follows binding to a sensor surface in real time, without labels.
B1 yielded a Kd of 0.77 nM, a dissociation rate constant (koff) of 0.000137 s⁻¹ and a kon of 178000 M⁻¹ s⁻¹.

B11 gave a Kd of 0.86 nM, a koff of 0.000145 s⁻¹ and a kon of 168000 M⁻¹ s⁻¹.

In turn, B12 gave a Kd of 0.887 nM, a koff of 0.000149 s⁻¹ and a kon of 168000 M⁻¹ s⁻¹.

A further experiment has as its target T1, human MASP3-His. The description is as above.
B1 displayed a Kd of 1.04 nM, a koff of 0.000189 s⁻¹ and a kon of 182000 M⁻¹ s⁻¹.

On to B11, for which binding was put at a Kd of 1.34 nM, the koff turned out to be 0.000218 s⁻¹ and the kon is 163000 M⁻¹ s⁻¹.

Regarding B12, the Kd was found to be 1.45 nM, the koff worked out at 0.00025 s⁻¹ and the kon amounted to 173000 M⁻¹ s⁻¹.

The next experiment concerns the target T5, monkey MASP3-His (monkey).
T5 construct: monkey species not further specified
Described as above.
In the case of B1, the dissociation constant Kd is 0.77 nM, the koff was found to be 0.000137 s⁻¹ and the kon came out at 178000 M⁻¹ s⁻¹.

Regarding B11, the Kd is 0.86 nM, the off-rate constant (koff) was determined as 0.000144 s⁻¹ and the kon is 167000 M⁻¹ s⁻¹.

As for B12, the Kd turned out to be 0.887 nM, the koff was found to be 0.000147 s⁻¹ and the kon worked out at 165000 M⁻¹ s⁻¹.

In another experiment the target is MASP2 in normal human plasma (human, UniProt O00187 16-686). Put plainly: cell-based or functional assay.
MASP2 in normal human plasma, sequence (O00187 16-686 limits assumed): as the sequence (O00187 16-686 R444Q limits assumed) above, with Q429R counted along it
B13: the “IC50 (nM), inhibition of complement C4b deposition (mannan-coated plate, 1% human plasma)” value was 0.055 nM.

Take B14: the “IC50 (nM), inhibition of complement C4b deposition (mannan-coated plate, 1% human plasma)” value amounted to 0.05 nM.

For the molecule B15, the “IC50 (nM), inhibition of complement C4b deposition (mannan-coated plate, 1% human plasma)” value amounted to 0.09 nM.

Consider B16, for which the “IC50 (nM), inhibition of complement C4b deposition (mannan-coated plate, 1% human plasma)” value worked out at 0.11 nM.

Consider B17, for which the “IC50 (nM), inhibition of complement C4b deposition (mannan-coated plate, 1% human plasma)” value was found to be 0.045 nM.

Another experiment addresses T3, MASP3 in Factor D depleted human plasma. Put plainly: cell-based or functional assay.
For the molecule B1, the “Inhibit hemolysis IC50” value was 2.11 nM.

Turning to B18, the “Inhibit hemolysis IC50” value worked out at 3.41 nM.

With B11, the “Inhibit hemolysis IC50” value is 2.2 nM.

Take B12: the “Inhibit hemolysis IC50” value worked out at 3.18 nM.
